Measurements taken from patent US20120232127A1, “REGULATION OF NEUROTRANSMITTER RELEASE THROUGH ANION CHANNELS” (KOREA INSTITUTE OF SCIENCE AND TECHNOLOGY, priority 2008, published 2012).

Experiments:
[1] = biological target: T1, astrocytic CAAC / mBest1 channel (glutamate release) (Mus musculus, UniProt O88870, R255K); assay: Sniffer patch: astrocyte to GluR1 (L497Y)-expressing HEK293T cell pairs, TFLLR-induced glutamate release; format: cell-based; conditions: sniffer patch, lentiviral shRNA expressing astrocytes, TFLLR
T1 construct: endogenous in cells; host or cells: cultured mouse cortical astrocytes
T1 sequence (O88870 1-551 R255K): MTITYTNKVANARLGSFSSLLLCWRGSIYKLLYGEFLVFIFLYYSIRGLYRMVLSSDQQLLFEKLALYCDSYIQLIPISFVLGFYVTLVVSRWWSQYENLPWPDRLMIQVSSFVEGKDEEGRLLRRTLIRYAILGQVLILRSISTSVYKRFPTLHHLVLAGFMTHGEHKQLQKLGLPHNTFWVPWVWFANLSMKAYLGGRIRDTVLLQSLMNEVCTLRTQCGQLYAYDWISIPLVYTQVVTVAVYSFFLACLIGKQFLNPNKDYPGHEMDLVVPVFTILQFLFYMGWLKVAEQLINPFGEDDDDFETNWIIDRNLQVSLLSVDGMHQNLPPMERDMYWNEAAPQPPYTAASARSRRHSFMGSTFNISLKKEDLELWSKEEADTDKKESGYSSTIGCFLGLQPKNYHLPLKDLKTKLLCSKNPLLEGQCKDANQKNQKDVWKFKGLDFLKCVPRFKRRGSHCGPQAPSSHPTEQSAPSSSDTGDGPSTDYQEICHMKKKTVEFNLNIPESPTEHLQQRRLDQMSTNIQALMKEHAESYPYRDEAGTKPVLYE
Procedure: (§1) The sniffer patch technique, which is used for determining whether or not one is permeable to glutamate, was performed as described in Lee, C. J. et al. Astrocytic control of synaptic NMDA receptors. J Physiol 581, 1057-81 (2007), which is hereby incorporated by reference for all purposes as if fully set forth herein.
(§2) 2. In experiments using astrocyte-HEK293T cell pairs, the sniffer patch techniques used naïve, scrambled- or mBest1-specific shRNA expressing (with GFP) astrocytes as a glutamate source; and GluR1 (L497Y) expressing HEK293T cells (with DsRED) as a detector. After obtaining gigaohm sealing, GluR1 (L497Y)-expressing cell was firstly ruptured, and then counterpart astrocytes were pressure-applied with 500 uM of TFLLR to evoke an increase in astrocytic intracellular Ca^2+ and resulting glutamate release onto the adjacent HEK293T cells.
(§3) GluR1LY-expressing detector cells were patched with the pipette solution pH 7.3 containing 110 mM CsGluconate, 30 mM CsCl, 5 mM HEPES, 4 mM NaCl, 2 mM MgCl2, 5 mM EGTA, and 1 mM CaCl2. The percentage of GluR1 (L497Y)-mediated current to the full activation level was analyzed by dividing the current amplitude of GluR1 (L497Y) current obtained through sniffer patch measurement by that of fully activated GluR1 (L497Y) current in the same cells.
(§4) The glutamate release through astrocytic CAACs was examined by using “sniffer-patch” technique and recording real-time glutamate release from cultured astrocytes (FIG. 10a). Using this technique, the present inventors observed that TFLLR-induced astrocytic glutamate release into an adjacent HEK293T cells expressing the non-desensitizing AMPA receptor subunit GluR1 (L497Y) mutant evoked an inward current sensitive to AMPA receptor antagonists, which is interpreted to reflect release of glutamate. The effects of TFLLR on current responses in transfected HEK293T cells was blocked by the treatment of niflumic acid (% block by niflumic acid=66.6±5.7%, FIGS. 10d to 10f), which is consistent with the idea that astrocytic CAAC is permeable to glutamate.

[2] = test system: astrocytic CAAC / mBest1 channel (glutamate release); assay: as above; format: cell-based, mouse; conditions: relative to scrambled shRNA
Procedure: as §1, §2, §3, §4

B1: mBest1 shRNA: mBest1-specific short hairpin RNA, SEQ ID NO: 3 and 4 (lentiviral: SEQ ID NO: 30), nucleotides 563-582 of mBest1 (nucleic acid)
chain 1: GATCCCCTTGCCAACTTGTCAATGAATTCAAGAGATTCATTGACAAGTTGGCAATTTTTA
chain 2: GGGAACGGTTGAACAGTTACTTAAGTTCTCTAAGTAACTGTTCAACCGTTAAAAATTCGA
With B1 the “percentage of GluR1 (L497Y)-mediated current to the fully activated GluR1 (L497Y) current by 1 mM glutamate” value [1] was 4.2±1.2% and the “remaining component of glutamate release from astrocytes by mBest1 knock-down” value [2] was “about 33%”.
